Laboratory results reported in publication PMC11999606, “Dynein light chains 1 and 2 are auxiliary proteins of pH-sensitive Kir4.1 channels” (The Journal of Biological Chemistry, 2025).

B1: N-terminal FLAG-GFP-tagged full-length Kir4.1 (natural protein, UniProt P78508 1-379, looked up)
chain: MTSVAKVYYSQTTQTESRPLMGPGIRRRRVLTKDGRSNVRMEHIADKRFLYLKDLWTTFIDMQWRYKLLLFSATFAGTWFLFGVVWYLVAVAHGDLLELDPPANHTPCVVQVHTLTGAFLFSLESQTTIGYGFRYISEECPLAIVLLIAQLVLTTILEIFITGTFLAKIARPKKRAETIRFSQHAVVASHNGKPCLMIRVANMRKSLLIGCQVTGKLLQTHQTKEGENIRLNQVNVTFQVDTASDSPFLILPLTFYHVVDETSPLKDLPLRSGEGDFELVLILSGTVESTSATCQVRTSYLPEEILWGYEFTPAISLSASGKYIADFSLFDQVVKVASPSGLRDSTVRYGDPEKLKLEESLREQAEKEGSALSVRISNV
notes: Kir4.1 (KCNJ10), full length; also called F-GFP-Kir4.1; Kir4.1-WT; source: in detergent-solubilized membrane fraction, and purified; not shown: FLAG, N-terminal, kept; GFP, N-terminal, kept
B2: full-length Kir4.1, N-terminal tags cleaved off (natural protein, UniProt P78508 1-379, looked up)
chain: B1 chain
notes: Kir4.1 (KCNJ10) inwardly rectifying potassium channel, full length; Purified as a tetramer that carries copurified endogenous LC8; also called KCNJ10; Kir4.1 WT; source: purified (FLAG resin, eluted by HRV 3C cleavage, Superose 6 SEC); not shown: FLAG, N-terminal, cleaved; GFP, N-terminal, cleaved
B3: full-length Kir4.1 protein with the ΔTQT deletion (natural protein, UniProt P78508 1-379, looked up)
chain: MTSVAKVYYSQTESRPLMGPGIRRRRVLTKDGRSNVRMEHIADKRFLYLKDLWTTFIDMQWRYKLLLFSATFAGTWFLFGVVWYLVAVAHGDLLELDPPANHTPCVVQVHTLTGAFLFSLESQTTIGYGFRYISEECPLAIVLLIAQLVLTTILEIFITGTFLAKIARPKKRAETIRFSQHAVVASHNGKPCLMIRVANMRKSLLIGCQVTGKLLQTHQTKEGENIRLNQVNVTFQVDTASDSPFLILPLTFYHVVDETSPLKDLPLRSGEGDFELVLILSGTVESTSATCQVRTSYLPEEILWGYEFTPAISLSASGKYIADFSLFDQVVKVASPSGLRDSTVRYGDPEKLKLEESLREQAEKEGSALSVRISNV
notes: Kir4.1 (KCNJ10), full length, with the three TQT residues (13-15) deleted; also called Kir4.1-ΔTQT; not shown: GFP, N-terminal, kept

Biological target: the molecule itself
Experiment: SEC; purified Kir4.1 proteins on a Superose 6 column in glyco-diosgenin-containing buffer; pH 8.0 and pH 6.0 for the WT without tags; tetramer peak

| Protein | stoichiometry N |
| --- | --- |
| B1 | 4 |
| B2 | 4 |
| B3 | 4 |
